Reference: PMC8881611, “A mechanism of origin licensing control through autoinhibition of S. cerevisiae ORC·DNA·Cdc6” (Nature Communications, 2022)

T1: S. cerevisiae Orc1 (S. cerevisiae, UniProt P54784 1-914)
T1 construct: Orc1, S. cerevisiae, wild type; Stood in the assays as a subunit of ScORC·DNA(·Cdc6); also called ScOrc1; source: High5 insect cells, co-expressed and purified as a subunit of ScORC; not shown: His6, N-terminal, cleaved
T1 sequence (looked up): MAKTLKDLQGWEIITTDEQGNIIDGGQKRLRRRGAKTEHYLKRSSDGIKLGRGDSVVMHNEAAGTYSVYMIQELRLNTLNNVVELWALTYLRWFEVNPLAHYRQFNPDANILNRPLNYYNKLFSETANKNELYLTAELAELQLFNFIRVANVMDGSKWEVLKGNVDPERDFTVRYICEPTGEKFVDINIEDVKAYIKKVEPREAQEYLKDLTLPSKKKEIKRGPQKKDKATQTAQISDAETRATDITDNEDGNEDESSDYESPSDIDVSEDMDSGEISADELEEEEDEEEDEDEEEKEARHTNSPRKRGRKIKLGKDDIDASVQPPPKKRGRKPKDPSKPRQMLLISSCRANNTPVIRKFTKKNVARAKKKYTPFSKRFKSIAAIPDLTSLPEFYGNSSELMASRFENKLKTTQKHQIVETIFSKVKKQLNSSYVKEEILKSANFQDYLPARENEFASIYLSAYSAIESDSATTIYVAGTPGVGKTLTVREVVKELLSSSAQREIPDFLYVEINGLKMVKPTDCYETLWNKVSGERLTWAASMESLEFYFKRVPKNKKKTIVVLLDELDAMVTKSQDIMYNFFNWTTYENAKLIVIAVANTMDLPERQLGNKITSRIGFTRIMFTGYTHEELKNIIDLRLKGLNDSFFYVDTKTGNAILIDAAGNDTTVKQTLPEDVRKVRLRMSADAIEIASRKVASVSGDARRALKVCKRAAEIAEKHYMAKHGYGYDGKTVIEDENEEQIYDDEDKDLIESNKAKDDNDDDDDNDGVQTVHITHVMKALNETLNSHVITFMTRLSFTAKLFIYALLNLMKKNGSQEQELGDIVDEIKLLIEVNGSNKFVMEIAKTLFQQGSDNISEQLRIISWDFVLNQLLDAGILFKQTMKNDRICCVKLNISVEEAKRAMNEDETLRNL

B1: S. cerevisiae Cdc6 (ScCdc6), full length (natural protein, UniProt P09119 1-513, looked up)
chain: MSAIPITPTKRIRRNLFDDAPATPPRPLKRKKLQFTDVTPESSPEKLQFGSQSIFLRTKALLQKSSELVNLNSSDGALPARTAEYEQVMNFLAKAISEHRSDSLYITGPPGTGKTAQLDMIIRQKFQSLPLSLSTPRSKDVLRHTNPNLQNLSWFELPDGRLESVAVTSINCISLGEPSSIFQKIFDSFQDLNGPTLQIKNMQHLQKFLEPYHKKTTFVVVLDEMDRLLHANTSETQSVRTILELFLLAKLPTVSFVLIGMANSLDMKDRFLSRLNLDRGLLPQTIVFQPYTAEQMYEIVIQKMSSLPTIIFQPMAIKFAAKKCAGNTGDLRKLFDVLRGSIEIYELEKRFLLSPTRGSLNSAQVPLTPTTSPVKKSYPEPQGKIGLNYIAKVFSKFVNNNSTRTRIAKLNIQQKLILCTIIQSLKLNSDATIDESFDHYIKAITKTDTLAPLQRNEFLEICTILETCGLVSIKKTKCKGKTKRFVDKIDVDLDMREFYDEMTKISILKPFLH
notes: Cdc6, S. cerevisiae, wild type; also called co-loader; source: High5 insect cells, baculovirus, purified as ScORC (HisTrap, amylose, TEV cleavage, HisTrap, Superdex 200); not shown: His6, N-terminal, cleaved; MBP, N-terminal, cleaved
B2: S. cerevisiae Orc6 (natural protein, UniProt P38826 1-435, looked up)
chain: MSMQQVQHCVAEVLRLDPQEKPDWSSGYLKKLTNATSILYNTSLNKVMLKQDEEVARCHICAYIASQKMNEKHMPDLCYYIDSIPLEPKKAKHLMNLFRQSLSNSSPMKQFAWTPSPKKNKRSPVKNGGRFTSSDPKELRNQLFGTPTKVRKSQNNDSFVIPELPPMQTNESPSITRRKLAFEEDEDEDEEEPGNDGLSLKSHSNKSITGTRNVDSDEYENHESDPTSEEEPLGVQESRSGRTKQNKAVGKPQSELKTAKALRKRGRIPNSLLVKKYCKMTTEEIIRLCNDFELPREVAYKIVDEYNINASRLVCPWQLVCGLVLNCTFIVFNERRRKDPRIDHFIVSKMCSLMLTSKVDDVIECVKLVKELIIGEKWFRDLQIRYDDFDGIRYDEIIFRKLGSMLQTTNILVTDDQYNIWKKRIEMDLALTEPL
modifications: mixture of unphosphorylated and phosphorylated Orc6, including established CDK sites (sites not given)
notes: Orc6, S. cerevisiae, wild type; Stood in the assays as a subunit of ScORC·DNA(·Cdc6); also called ScOrc6; holds Orc6-CBN (N-terminal cyclin box fold) and Orc6-CBC (C-terminal cyclin box fold); source: High5 insect cells, co-expressed and purified as a subunit of ScORC

Legend:
Test in all cases: cryo-EM structure; ScORC (2.5 uM), 84 bp ARS1 DNA (3 uM) and ScCdc6 (6.8 uM) reconstituted with 1 mM ATP, purified on Superose 6 in 25 mM HEPES-KOH pH 7.6, 250 mM potassium acetate, 10 mM magnesium acetate, 1 mM DTT, 0.2 mM ATP; not cross-linked; masked 3D classification
Settings in all cases: both partners purified
[1] = target: T2, S. cerevisiae Origin Recognition Complex (ScORC), full-length Orc1-6 (S. cerevisiae, UniProt P54784 1-914; P32833 1-620; P54790 1-616; P54791 1-529; P50874 1-479; P38826 …, mixture of unphosphorylated and phosphorylated Orc6, including established CDK sites (sites not given))
T2 construct: Orc1, S. cerevisiae, wild type; Orc2, S. cerevisiae, wild type; Orc3, S. cerevisiae, wild type; Orc4, S. cerevisiae, wild type; Orc5, S. cerevisiae, wild type; Orc6, S. cerevisiae, wild type; also called initiator; source: High5 insect cells co-infected with baculoviruses, purified (HisTrap, amylose, TEV cleavage, HisTrap, Sephacryl S-400); not shown: His6, N-terminal, cleaved; MBP, N-terminal, …
T2 sequence (P32833 whole entry, chain 2 of 4): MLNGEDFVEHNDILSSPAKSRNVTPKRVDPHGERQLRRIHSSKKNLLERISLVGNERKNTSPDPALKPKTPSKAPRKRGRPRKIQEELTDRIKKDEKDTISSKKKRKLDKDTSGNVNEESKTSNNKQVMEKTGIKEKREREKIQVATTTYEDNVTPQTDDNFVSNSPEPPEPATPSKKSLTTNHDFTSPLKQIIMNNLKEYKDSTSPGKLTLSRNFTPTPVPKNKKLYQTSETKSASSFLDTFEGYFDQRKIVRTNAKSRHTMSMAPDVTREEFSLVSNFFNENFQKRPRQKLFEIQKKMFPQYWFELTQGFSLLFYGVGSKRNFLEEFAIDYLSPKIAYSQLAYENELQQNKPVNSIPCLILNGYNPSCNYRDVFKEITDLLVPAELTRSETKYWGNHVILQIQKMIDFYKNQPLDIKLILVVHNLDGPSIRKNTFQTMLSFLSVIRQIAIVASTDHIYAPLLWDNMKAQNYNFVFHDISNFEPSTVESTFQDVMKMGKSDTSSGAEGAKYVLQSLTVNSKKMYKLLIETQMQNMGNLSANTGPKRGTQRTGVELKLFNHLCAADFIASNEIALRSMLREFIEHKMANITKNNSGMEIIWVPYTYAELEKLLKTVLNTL
T2 sequence (P54790 whole entry, chain 3 of 4): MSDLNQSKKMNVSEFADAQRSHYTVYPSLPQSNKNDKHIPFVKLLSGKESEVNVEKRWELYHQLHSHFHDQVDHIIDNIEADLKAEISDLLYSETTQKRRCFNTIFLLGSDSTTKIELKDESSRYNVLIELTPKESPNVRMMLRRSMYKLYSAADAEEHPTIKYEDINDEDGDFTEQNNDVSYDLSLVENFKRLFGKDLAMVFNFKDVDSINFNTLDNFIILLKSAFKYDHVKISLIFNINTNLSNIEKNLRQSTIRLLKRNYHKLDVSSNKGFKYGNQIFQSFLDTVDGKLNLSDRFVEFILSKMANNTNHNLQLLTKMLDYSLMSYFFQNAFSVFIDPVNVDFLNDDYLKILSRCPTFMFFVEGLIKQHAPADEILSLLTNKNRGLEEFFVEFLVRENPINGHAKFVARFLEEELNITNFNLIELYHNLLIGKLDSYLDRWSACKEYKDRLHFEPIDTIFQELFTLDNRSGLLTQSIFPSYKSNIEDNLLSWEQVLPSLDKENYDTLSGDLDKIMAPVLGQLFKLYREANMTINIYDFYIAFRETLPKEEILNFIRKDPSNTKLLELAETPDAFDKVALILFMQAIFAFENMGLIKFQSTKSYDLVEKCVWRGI
T2 sequence (P54791 whole entry, chain 4 of 4): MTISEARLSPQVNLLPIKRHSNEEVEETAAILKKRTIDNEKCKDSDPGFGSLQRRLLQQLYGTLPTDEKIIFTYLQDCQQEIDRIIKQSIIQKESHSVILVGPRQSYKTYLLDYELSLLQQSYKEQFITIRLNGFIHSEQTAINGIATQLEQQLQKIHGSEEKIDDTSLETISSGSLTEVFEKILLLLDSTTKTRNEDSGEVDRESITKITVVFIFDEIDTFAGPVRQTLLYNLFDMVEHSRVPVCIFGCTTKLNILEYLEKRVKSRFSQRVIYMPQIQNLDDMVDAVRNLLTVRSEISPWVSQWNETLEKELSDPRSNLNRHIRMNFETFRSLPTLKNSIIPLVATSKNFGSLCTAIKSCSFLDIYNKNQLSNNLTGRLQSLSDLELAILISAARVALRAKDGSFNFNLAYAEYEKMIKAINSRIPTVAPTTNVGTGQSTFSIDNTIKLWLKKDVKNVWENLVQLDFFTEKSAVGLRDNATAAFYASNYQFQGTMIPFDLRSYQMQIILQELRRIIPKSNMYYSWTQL
T2 sequence (P50874 whole entry, chain 5 of 4): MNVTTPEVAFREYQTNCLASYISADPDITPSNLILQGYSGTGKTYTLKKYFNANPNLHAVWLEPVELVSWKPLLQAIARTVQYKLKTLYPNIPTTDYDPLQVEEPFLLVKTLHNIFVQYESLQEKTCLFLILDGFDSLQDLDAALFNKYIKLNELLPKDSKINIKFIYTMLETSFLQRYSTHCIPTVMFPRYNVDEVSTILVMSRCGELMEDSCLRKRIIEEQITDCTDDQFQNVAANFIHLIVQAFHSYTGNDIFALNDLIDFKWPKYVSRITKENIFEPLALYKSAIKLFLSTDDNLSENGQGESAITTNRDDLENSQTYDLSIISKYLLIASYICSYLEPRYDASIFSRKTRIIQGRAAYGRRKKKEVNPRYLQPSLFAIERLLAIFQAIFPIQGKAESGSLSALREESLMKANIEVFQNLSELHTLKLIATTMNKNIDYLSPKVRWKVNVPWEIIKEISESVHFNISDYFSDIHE

[2] = target: T1, S. cerevisiae Orc1
[3] = target: B1

Row | Binder | binding result [1] | binding result [2] | binding result [3]
1 | B1 | binds | binds | 
2 | B2 |  |  | binds
